Experimental data as given in publication PMC3547832, “Secondary Metabolism and Development Is Mediated by LlmF Control of VeA Subcellular Localization in Aspergillus nidulans” (PLoS Genetics, 2013).

How the values were obtained:
LaeA = LaeA (Aspergillus nidulans, UniProt C8VQG9); details: labelled compound; room temperature, UV on ice 30 min; GST-LaeA
[1] = target: T1, His6-VeA-S-tag (recombinant) (Aspergillus nidulans, UniProt C8VTV4 1-573); assay: pull-down; 10 µg purified GST tagged protein, glutathione sepharose and purified His6-VeA-S-tag, 3 hours at 4°C in PBS buffer with 1 mM DTT, pH 7.3; anti-S-tag immunoblot; details: both partners purified
T1 construct: VeA, Aspergillus nidulans; E. coli codon-optimized version obtained from Reinhard Fischer, EcoRI-XhoI fragment in pRSF-1b; source: E. coli BL21 (λDE3), purified (Ni-NTA); not shown: His6, N-terminal, kept; S-tag, C-terminal, kept
T1 sequence (looked up): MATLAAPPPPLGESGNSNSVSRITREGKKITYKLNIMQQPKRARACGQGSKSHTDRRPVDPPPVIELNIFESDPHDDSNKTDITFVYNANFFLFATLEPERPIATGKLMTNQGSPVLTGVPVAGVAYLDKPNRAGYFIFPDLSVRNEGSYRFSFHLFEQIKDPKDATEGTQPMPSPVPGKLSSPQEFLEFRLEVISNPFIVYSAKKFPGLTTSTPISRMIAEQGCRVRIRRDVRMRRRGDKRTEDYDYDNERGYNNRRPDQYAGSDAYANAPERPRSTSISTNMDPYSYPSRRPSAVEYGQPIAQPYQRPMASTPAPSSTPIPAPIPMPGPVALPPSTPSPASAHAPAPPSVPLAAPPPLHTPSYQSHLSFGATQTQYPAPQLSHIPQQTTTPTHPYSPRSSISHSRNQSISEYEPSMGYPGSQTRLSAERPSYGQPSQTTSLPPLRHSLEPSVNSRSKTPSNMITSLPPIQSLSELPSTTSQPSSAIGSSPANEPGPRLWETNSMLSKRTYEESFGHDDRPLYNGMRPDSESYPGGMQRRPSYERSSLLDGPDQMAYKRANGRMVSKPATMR

## C[S+](CC[C@H](N)C(=O)O)C[C@H]1O[C@@H](n2cnc3c(N)ncnc32)[C@H](O)[C@@H]1O (stereo partly drawn) [S-adenosyl methionine]
LaeA
  UV crosslinking of 3H-SAM, SDS-PAGE and tritium phosphor screen: these results indicate that both LaeA and LlmF have the ability to bind SAM

B1: GST-LaeA (recombinant) (natural protein, Aspergillus nidulans, UniProt C8VQG9 1-374, looked up)
chain: MFEMGPVGTRLPAMTSPAHNHYSYHSPTSSDRGRSRQNSDAMDIQSITEREPATRYAVAGGPAPWNRNGSPSMSPMYSNNSERNQFHEENGRTYHGFRRGMYFLPCDEQEQDRLDIFHKLFTVARVSESLIYAPHPTNGRFLDLGCGTGIWAIEVANKYPDAFVAGVDLAPIQPPNHPKNCEFYAPFDFEAPWAMGEDSWDLIHLQMGCGSVMGWPNLYRRIFAHLRPGAWFEQVEIDFEPRCDDRSLDGTALRHWYDCLKQATAETMRPIAHSSRDTIKDLQDAGFTEIDHQIVGLPLNPWHQDEHERKVARWYNLAVSESIENLSLAPFSRVYRWPLERIQQLAADVKSEAFNKEIHAYNILHIYQARKPLR
notes: LaeA, Aspergillus nidulans, locus AN0807; GST fusion in pGEX; source: E. coli BL21 (λDE3), purified (glutathione sepharose 6B)
[1]
  binding result: binds

B2: GST-VelB (recombinant) (natural protein, Aspergillus nidulans, UniProt C8VTS4 1-369, looked up)
chain: MYAVEDRAHSGHHPPPLSMDRIPPPSTMYPSSAGPSAMVSPAGQPEPESLSTVHDGRIWSLQVVQQPIRARMCGFGDKDRRPITPPPCIRLIVKDAQTQKEVDINSLDSSFYVVMADLWNADGTHEVNLVKHSATSPSISTAMSSSYPPPPHPTSSDYPASYQTNPYGQPVGQPVGQPVGYAGVGNYYGGSTQLQYQNAYPNPQAQYYQPMYGGMAQPQMPAAQPVTPGPGGMFTRNLIGCLSASAYRLYDTEDKIGVWFVLQDLSVRTEGIFRLKFSFVNVGKSVSDLPQSDIAEVINKGTAPILASTFSEPFQVFSAKKFPGVIESTPLSKVFANQGIKIPIRKDGVKGQGSRGRHSDEDDGLDNEY
notes: VelB, Aspergillus nidulans; GST fusion in pGEX; source: E. coli BL21 (λDE3), purified (glutathione sepharose 6B)
[1]
  binding result: binds
